The values below come from paper PMC3369931.

In general, Kd refers to the constant that tells how readily two partners part at equilibrium.

Common to all, as to test: EMSA
Series [1] relates to EutV ANTAR (Enterococcus faecalis (V583?)). As to conditions: 10 mM Mg2+; 50 mM Hepes pH 7.5, 150 mM NaCl, 10 mM MgCl2, 2.5 ng/ul yeast tRNA, ~2 fmol RNA in 10 ul, 30 min at 25 C; EMSA on 5% native TBE gel, or DRaCALA on …. (Mobility shift assays separate free from complexed probe on a gel.)
Series [2] relates to EutV ANTARcc (Enterococcus faecalis (V583?)). Particulars: 10 mM Mg2+; 50 mM Hepes pH 7.5, 150 mM NaCl, 10 mM MgCl2, 2.5 ng/ul yeast tRNA, ~2 fmol RNA in 10 ul, 30 min at 25 C; EMSA on 5% native TBE gel, or DRaCALA on ….
Series [3] relates to EutV full length (Enterococcus faecalis (V583?)). Particulars: unphosphorylated; 10 mM Mg2+; 50 mM Hepes pH 7.5, 150 mM NaCl, 10 mM MgCl2, 2.5 ng/ul yeast tRNA, ~2 fmol RNA in 10 ul, 30 min at 25 C; EMSA on 5% native TBE gel, or DRaCALA on ….

In turn, “GGGCAAAGAAUCAGAAACACAAUGGCGUGUUUUAACAAUCGGCAAAGGAGCCCAAGACUAAGUACGUG [eutP 5' leader dual hairpin RNA, wild type]” registered a binding signal (fold weaker than ANTARcc) in series [1] of 100. In addition, the Kd in series [2] came out at 0.7 µM; in series [3], 10 µM.
